# ± gives the uncertainty stated by the source.
# Assay: self-splicing fitness, log relative to wild type (ln ratio); higher = more splicing; Tetrahymena group I intron in knt gene, E. coli kanamycin selection, DiMSum; sequences stand for … in CUCUCU…GGAGGGAAAAGUUAUCAGGCAUGCACCUGGUAGCUAGUCUUUAAACCAAUAGAUUGCAUCGGUUUAAAAGGCAAGACCGUCAAAUUGCGGGAAAGGGGUCAACAGCCGUUCAGUACCAAGUCUCAGGGGAAACUUUGAGAUGGCCUUGCAAAGGGUAUGGUAAUAAGCUGACGGACAUGGUCCUAACCACGCAGCCAAGUCCUAAGUCAACAGAUCUUCUGUUGAUAUGGAUGCAGUUCACAGACUAAAUGUCGGUCGGGGAAGAUGUAUUCUUCUCAUAAGAUAUAGUCGGACCUCUCCUUAAUGGGAGCUAGCGGAUGAAGUGAUGCAACACUGGAGCCGCUGGGAACUAAUUUGUAUGCGAAAGUAUAUUGAUUAGUUUUGGAGUACUCGUGGUCG
# How it was run: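 Pooled colonies went to amplicon sequencing on an Illumina HiSeq 2500 after six replicate transformations. The plates were LB agar with 100 μg/mL carbenicillin, 50 μM IPTG and 0.2% rhamnose, with or without 25 μg/mL kanamycin, incubated overnight at 37°C or 30°C. The E. coli BL21(DE3) library had all eight P1ex-region intron nucleotides randomised, the intron placed in the knt kanamycin-resistance gene on pET-22b(+). DiMSum fitness is the error-weighted combination of replicate fold changes, kanamycin against none, normalised to wild type.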
Sequence,self-splicing fitness (ln) (30 °C),self-splicing fitness (ln) (37 °C)
GAGUAGCAAUAUUACGUUAA,-3.94 ± 0.22,-2.33 ± 0.18
GAGUAGCAAUAUUACGUUAG,-3.69 ± 0.37,-2.96 ± 0.34
GAUAAGCAAUAUUACGAAUG,-1.28 ± 0.14,-0.794 ± 0.15
GAUAAGCAAUAUUACGAUCG,-0.76 ± 0.12,-0.691 ± 0.14
GAUAAGCAAUAUUACGAUCU,0.509 ± 0.17,-1.55 ± 0.19
GAUAAGCAAUAUUACGAUUU,-0.385 ± 0.083,1.36 ± 0.12
GAUAAGCAAUAUUACGCAUG,-1.21 ± 0.084,-0.777 ± 0.11
GAUAAGCAAUAUUACGCCUA,-0.016 ± 0.19,-0.316 ± 0.19
GAUAAGCAAUAUUACGCCUU,-0.931 ± 0.1,-0.199 ± 0.14
GAUAAGCAAUAUUACGCGAG,-1.04 ± 0.073,-0.376 ± 0.079
GAUAAGCAAUAUUACGCGCU,-1.44 ± 0.14,-1.47 ± 0.15
GAUAAGCAAUAUUACGCGUA,-0.996 ± 0.14,-0.968 ± 0.16
GAUAAGCAAUAUUACGCGUC,-4.66 ± 0.36,-2.53 ± 0.33
GAUAAGCAAUAUUACGCUGG,-2.66 ± 0.14,-2.04 ± 0.2
GAUAAGCAAUAUUACGGAUU,-3.19 ± 0.14,-1.91 ± 0.12
GAUAAGCAAUAUUACGGCAC,-0.252 ± 0.15,-0.637 ± 0.17
GAUAAGCAAUAUUACGGCCC,-0.576 ± 0.19,-0.0157 ± 0.28
GAUAAGCAAUAUUACGGCUU,-0.701 ± 0.1,-0.0417 ± 0.14
GAUAAGCAAUAUUACGGUGC,-2.8 ± 0.19,-2.17 ± 0.22
GAUAAGCAAUAUUACGUAAC,-1.22 ± 0.1,-0.811 ± 0.16
GAUAAGCAAUAUUACGUAAG,-2.38 ± 0.088,-0.896 ± 0.11

Sequence,self-splicing fitness (ln) (30 °C),self-splicing fitness (ln) (37 °C)
GAUAAGCAAUAUUACGUCCC,-0.291 ± 0.2,-0.349 ± 0.25
GAUAAGCAAUAUUACGUCGC,-1.76 ± 0.22,-1.17 ± 0.27
GAUAAGCAAUAUUACGUGGC,-3.32 ± 0.21,-2.24 ± 0.27
GAUAAGCAAUAUUACGUGUG,-1.96 ± 0.079,-0.282 ± 0.094
GAUAAGCAAUAUUACGUUGG,-3.89 ± 0.21,-2.87 ± 0.25
GAUCAGCAAUAUUACGAACC,-0.755 ± 0.19,-1.48 ± 0.28
GAUCAGCAAUAUUACGAGCG,-1.37 ± 0.08,-0.0351 ± 0.097
GAUCAGCAAUAUUACGAUCA,-0.53 ± 0.13,-0.636 ± 0.097
GAUCAGCAAUAUUACGCCUA,0.00222 ± 0.13,0.0251 ± 0.12
GAUCAGCAAUAUUACGCGGU,-2.98 ± 0.16,-1.85 ± 0.24
GAUCAGCAAUAUUACGCGUC,-2.9 ± 0.18,-3.33 ± 0.4
GAUCAGCAAUAUUACGGACA,-0.118 ± 0.089,0.127 ± 0.11
GAUCAGCAAUAUUACGGAGC,-1.86 ± 0.094,-0.552 ± 0.099
GAUCAGCAAUAUUACGGAUA,-0.42 ± 0.067,0.0803 ± 0.077
GAUCAGCAAUAUUACGGGAG,-1.64 ± 0.068,-0.581 ± 0.086
GAUCAGCAAUAUUACGGGAU,-3.01 ± 0.12,-1.18 ± 0.11
GAUCAGCAAUAUUACGGGCG,-0.25 ± 0.095,-0.511 ± 0.13
GAUCAGCAAUAUUACGUAAA,-0.582 ± 0.079,0.169 ± 0.099
GAUCAGCAAUAUUACGUCGG,-4.18 ± 0.3,-2.39 ± 0.2
GAUCAGCAAUAUUACGUCGU,-0.403 ± 0.079,-0.669 ± 0.1
GAUCAGCAAUAUUACGUCUA,-0.327 ± 0.071,0.145 ± 0.086
